For this assay, the system named is Lewis lung carcinoma (3LL). Kind of assay: Lewis lung carcinoma (3LL) survival, 1st experiment (Table A). In kind it is in vivo, C57B1/6 female mice. Conditions: 100 days; IM-2 0.5 mg/kg/day alone, IM-2 0.5 mg/kg + Il-2 0.05 μg/animal, or IL-2 0.1 μg/animal alone; i.p., 3 weekly cycles.

Protocol: Animals: 3-week-old C57B1/6 female mice were used in all the experiments (Table A, Table B, Table C)
Tumor: Lewis lung carcinoma (3LL) was the tumor selected for all the in vivo assessments (Table A, Table B, Table C) in these experiments, with the cells maintained in culture medium and inoculated subcutaneously in the animals at the concentration of 6×10^5 cancer cells (3 LL) for each animal.
Treatments: All treatments began 24 hours after the inoculation of cancer cells.
Observation period: The animals were evaluated during an observation period of 100 days in the survival experiment.
A fourth batch of 20 animals (Group 4) inoculated with 3 LL cells (6×10^5 cells/animal), was treated with 0.5 mg/kg/day of the proteic aggregate of ammonium and magnesium phospholinoleate-palmitoleate anhydride (Table A—Group 4—IM-2) and Interleukin-12 (IL-12), 0.05 g/animal given jointly by intraperitoneal injections in 3 weekly cycles. The animals were followed up for 100 days.
A fifth batch of 20 animals (Table A—Group 5) inoculated with 3 LL cells (6×10^5 cells/animal) was treated with Interleukin-12 (IL-12), 0.1 μg/animal applied by intraperitoneal injection in 3 weekly cycles. The animals were followed up for 100 days, and the number of survivors was expressed in percentage.

B1: Interleukin-12 (IL-12) (protein, UniProt P29459 23-219; P29460 23-328, looked up)
Interleukin-12 subunit alpha: RNLPVATPDPGMFPCLHHSQNLLRAVSNMLQKARQTLEFYPCTSEEIDHEDITKDKTSTVEACLPLELTKNESCLNSRETSFITNGSCLASRKTSFMMALCLSSIYEDLKMYQVEFKTMNAKLLMDPKRQIFLDQNMLAVIDELMQALNFNSETVPQKSSLEEPDFYKTKIKLCILLHAFRIRAVTIDRVMSYLNAS
Interleukin-12 subunit beta: IWELKKDVYVVELDWYPDAPGEMVVLTCDTPEEDGITWTLDQSSEVLGSGKTLTIQVKEFGDAGQYTCHKGGEVLSHSLLLLHKKEDGIWSTDILKDQKEPKNKTFLRCEAKNYSGRFTCWWLTTISTDLTFSVKSSRGSSDPQGVTCGAATLSAERVRGDNKEYEYSVECQEDSACPAAEESLPIEVMVDAVHKLKYENYTSSFFIRDIIKPDPPKNLQLKPLKNSRQVEVSWEYPDTWSTPHSYFSLTFCVQVQGKSKREKKDRVFTDKTSATVICRKNASISVRAQDRYYSSSWSEWASVPCS
For the molecule B1, the “% Survivors” value was 50%.

For the origin of these results see patent US9295682B2, “Adjuvant immunotherapy for the preventive, curative or palliative treatment of chronic systemic diseases such as cancer, of clinical manifestations associated with diseases like cachexia and correction of adverse effects of drugs such as immunosuppression, neutropenia and lymphopenia, comprising …” (priority 2009, dated 2016).
